Data published in patent publication US20230416363A1 (KADMON, published 2023).
Where a chain is given by its changes, count along the chain named.

Tests used:
hPD-1-his [1] = target: T1, hPD-1-his (human, UniProt Q15116 25-167); assay: ELISA, PD-1-his on streptavidin
T1 construct: domain: IgV domain; monomer in solution; biotin-labelled where captured by streptavidin; also called biotin-hPD-1-his

hPD-1-Fc [2] = target: T2, hPD-1-Fc (human, UniProt Q15116 25-167); assay: SPR, range over experiments
T2 construct: domain: IgV domain; also called human PD-1-Fc; not shown: human IgG1 Fc
T2 sequence (Q15116 25-167 limits assumed): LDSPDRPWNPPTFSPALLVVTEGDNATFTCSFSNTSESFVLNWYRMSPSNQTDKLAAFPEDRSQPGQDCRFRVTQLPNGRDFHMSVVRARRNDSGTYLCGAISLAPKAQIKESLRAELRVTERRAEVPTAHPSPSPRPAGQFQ

hPD-1-Fc [3] = target: T2, hPD-1-Fc; assay: SPR, Exp. 1
hPD-1-his [4] = target: T1, hPD-1-his; assay: SPR, Exp. 1
[5] = target: T3, human PD-1 expressed on cells (human, UniProt Q15116 25-288); assay: flow cytometry, activated PBMC donor two
T3 construct: whole, on cells
T3 sequence (Q15116 25-288): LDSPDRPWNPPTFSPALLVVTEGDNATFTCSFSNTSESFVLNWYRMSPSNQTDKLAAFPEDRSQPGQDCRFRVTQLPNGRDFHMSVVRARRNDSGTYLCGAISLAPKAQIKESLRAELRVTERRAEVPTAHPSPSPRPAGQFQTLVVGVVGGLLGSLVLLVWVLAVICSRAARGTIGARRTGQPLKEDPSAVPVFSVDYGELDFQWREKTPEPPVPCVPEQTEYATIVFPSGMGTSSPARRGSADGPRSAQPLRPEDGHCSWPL

hPD-1-his [6] = target: T1, hPD-1-his; assay: ELISA, PD-1-his on anti-his
hPD-1-his [7] = target: T1, hPD-1-his; assay: ELISA, biotin-PD-1-his on streptavidin
hPD-1-his [8] = target: T1, hPD-1-his; assay: SPR, Exp. 4
hPD-1-his [9] = target: T1, hPD-1-his; assay: SPR Biacore T200, PD-1-his immobilised
hPD-1-Fc [10] = target: T2, hPD-1-Fc; assay: blocking ELISA, hPD-1 to hPD-L1; design: unit not given here
hPD-1-his [11] = target: T1, hPD-1-his; assay: ELISA, PD-1-his on anti-his; remark: listed apart in the source
[12] = target: T3, human PD-1 expressed on cells; assay: flow cytometry, SEB-activated PBMC donor two
hPD-1-Fc [13] = target: T2, hPD-1-Fc; assay: blocking ELISA, PD-1 to PD-L2
hPD-1-his [14] = target: T1, hPD-1-his; assay: SPR (Biacore), hPD1his immobilised; upper end of the printed KD range over the experiments
hPD-1-Fc [15] = target: T2, hPD-1-Fc; assay: ELISA, hPD-1-Fc coated
hPD-1-Fc [16] = target: T2, hPD-1-Fc; assay: SPR, Exp. 3
hPD-1-his [17] = target: T1, hPD-1-his; assay: SPR, Exp. 3
[18] = target: T3, human PD-1 expressed on cells; assay: flow cytometry, activated PBMC donor FA
hPD-1-Fc [19] = target: T2, hPD-1-Fc; assay: SPR Biacore T200, PD-1-Fc immobilised
[20] = target: T3, human PD-1 expressed on cells; assay: flow cytometry, hPD-1-Jurkat cells
hPD-1-Fc [21] = target: T2, hPD-1-Fc; assay: blocking ELISA, PD-1 to PD-L1
[22] = target: T3, human PD-1 expressed on cells; assay: flow cytometry, SEB-activated PBMC donor
hPD-1-his [23] = target: T1, hPD-1-his; assay: SPR (Biacore), hPD1his immobilised; lower end of the printed KD range over the experiments
[24] = target: T3, human PD-1 expressed on cells; assay: flow cytometry, hPD-1-293 cells
[25] = target: T3, human PD-1 expressed on cells; assay: flow cytometry, hPD1-293 cells
hPD-1-Fc [26] = target: T2, hPD-1-Fc; assay: SPR, Exp. 2
hPD-1-his [27] = target: T1, hPD-1-his; assay: SPR, Exp. 2
hPD-1-Fc [28] = target: T2, hPD-1-Fc; assay: ELISA, PD-1-Fc coated
[29] = target: T3, human PD-1 expressed on cells; assay: cell-based or functional assay
[30] = target: T3, human PD-1 expressed on cells; assay: flow cytometry, hPD1-Jurkat cells
mPD-1-Fc [31] = target: T4, mPD-1-Fc (mouse; human, UniProt Q02242 25-167, limits assumed); assay: blocking ELISA, mPD-1 to PD-L1
T4 construct: domain: IgV domain; not shown: human IgG1 Fc
T4 sequence (looked up): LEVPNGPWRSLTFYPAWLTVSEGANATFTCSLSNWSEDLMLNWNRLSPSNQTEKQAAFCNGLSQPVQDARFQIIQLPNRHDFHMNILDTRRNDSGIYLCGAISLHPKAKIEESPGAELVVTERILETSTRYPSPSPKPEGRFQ

[32] = target: T5, mouse PD-1 expressed on cells (mouse, UniProt Q02242 25-288); assay: cell-based or functional assay
T5 sequence (looked up): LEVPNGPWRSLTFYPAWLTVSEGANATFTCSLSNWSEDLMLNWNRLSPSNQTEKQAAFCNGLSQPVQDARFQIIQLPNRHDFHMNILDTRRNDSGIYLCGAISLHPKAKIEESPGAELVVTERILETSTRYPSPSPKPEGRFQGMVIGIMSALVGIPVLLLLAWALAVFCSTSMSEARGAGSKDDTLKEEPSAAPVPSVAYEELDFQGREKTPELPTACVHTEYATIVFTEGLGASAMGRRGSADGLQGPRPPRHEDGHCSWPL

mPD-1-his [33] = target: T6, mPD-1-his (mouse, UniProt Q02242 25-167, limits assumed); assay: SPR Biacore, mPD1-his
T6 construct: domain: IgV domain
T6 sequence: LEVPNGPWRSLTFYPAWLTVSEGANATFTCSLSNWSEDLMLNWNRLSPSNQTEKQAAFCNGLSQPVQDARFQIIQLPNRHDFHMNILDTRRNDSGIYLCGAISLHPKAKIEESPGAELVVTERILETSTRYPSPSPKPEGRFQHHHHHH

[34] = target: T7, hPD1 (soluble, ELISA of Example 20) (human, UniProt Q15116 25-167, limits assumed); assay: ELISA, hPD1; direct binding ELISA on hPD1 (EC50 row)
T7 sequence (Q15116 25-167 limits assumed): as the sequence (Q15116 25-167 limits assumed) above

[35] = target: T5, mouse PD-1 expressed on cells; assay: flow cytometry, mPD1-eff cells
[36] = target: T8, mPD1 (soluble, ELISA of Examples 20 and 24) (mouse, UniProt Q02242 25-167, limits assumed); assay: blocking ELISA, mPD1 to mPDL1
T8 construct: also called Biotin-mPD1
T8 sequence (looked up): T4 sequence (looked up)

[37] = target: T8, mPD1 (soluble, ELISA of Examples 20 and …); assay: ELISA, mPD1
[38] = target: T5, mouse PD-1 expressed on cells; assay: flow cytometry, mPD1-293 cells
mPD-1-Fc [39] = target: T4, mPD-1-Fc; assay: SPR Biacore, mPD1-Fc
[40] = target: T8, mPD1 (soluble, ELISA of Examples 20 and …); assay: ELISA, biotin-mPD1 on streptavidin
[41] = target: T5, mouse PD-1 expressed on cells; assay: flow cytometry, mPD-1-293 cells
mPD-1-his [42] = target: T6, mPD-1-his; assay: ELISA, mPD-1-his on streptavidin
mPD-1-Fc [43] = target: T4, mPD-1-Fc; assay: ELISA, mPD-1-Fc on streptavidin
mPD-1-Fc [44] = target: T4, mPD-1-Fc; assay: ELISA, mPD-1-Fc
hPD-1-Fc [45] = target: T2, hPD-1-Fc; assay: SPR Biacore, hPD1-Fc
[46] = target: T7, hPD1 (soluble, ELISA of Example 20); assay: blocking ELISA, hPD1 to hPDL1
[47] = target: T7, hPD1 (soluble, ELISA of Example 20); assay: ELISA, hPD1
[48] = target: T5, mouse PD-1 expressed on cells; assay: cell-based or functional assay; remark: listed apart in the source
[49] = target: T3, human PD-1 expressed on cells; assay: cell-based or functional assay; remark: listed apart in the source
[50] = target: T3, human PD-1 expressed on cells; assay: flow cytometry, hPD1-293 cells; remark: listed apart in the source
[51] = target: T3, human PD-1 expressed on cells; assay: flow cytometry, hPD1-Jurkat cells; remark: listed apart in the source

T1 sequence (Q15116 other isoform, or with tags, fused parts or gaps limits assumed): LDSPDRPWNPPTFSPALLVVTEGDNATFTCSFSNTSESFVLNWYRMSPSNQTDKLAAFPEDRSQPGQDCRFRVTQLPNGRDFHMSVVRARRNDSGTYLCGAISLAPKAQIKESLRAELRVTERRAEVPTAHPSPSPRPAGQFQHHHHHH

B1: 38A6 (antibody, V domains shown)
VH: EVQLLESGGGLVQPGGSLRLSCAASGFTFSSYWMSWVRQAPGKGLEWVSAISGSGGSTYYADSVKGRFTISRDNSKNTLYLQMNSLRAEDTAVYYCASSPLQWVDVWGQGTTVTVSS
VL: DIQMTQSPSSLSASVGDRVTITCRASQDISRWLGWYQQKPGKAPKLLIYAASTLQSGVPSRFSGSGSGTDFTLTISSLQPEDFATYYCQQANSFPFTFGPGTKLEIK
notes: also called 780_46
- OD at 10 nM (hPD-1-his [1]): 0.948 OD
- Kd (hPD-1-Fc [2]): 0.14 to 0.3 nM
- Kd (hPD-1-Fc [3]): < 0.188 nM
- Kd (hPD-1-his [4]): 2.3 nM
- EC50 [5]: 0.17 nM
- MFI at 25 nM [5]: 15.9 MFI
- OD at 10 nM (hPD-1-his [6]): 0.576 OD
- EC50 (hPD-1-his [7]): 0.084 nM
- Kd (hPD-1-his [8]): < 0.09 nM
- Kd (hPD-1-his [9]): 1.18 nM
- Inhibition at 50 nM (hPD-1-Fc [10]): 91.7
- EC50 (hPD-1-his [11]): 0.089 nM
- MFI, 5 nM [12]: 54.7 MFI
- IC50 (hPD-1-Fc [13]): 2.39 nM
- Inhibition, % at 3.7 nM (hPD-1-Fc [13]): 90.4%
- Inhibition, % at 100 nM (hPD-1-Fc [13]): 94.8%
- Kd (hPD-1-his [14]): ≤ 2.3 nM
- OD at 10 nM (hPD-1-Fc [15]): 0.993 OD
- Kd (hPD-1-Fc [16]): < 0.301 nM
- Kd (hPD-1-his [17]): < 0.574 nM
- EC50 [18]: 0.21 nM
- MFI at 25 nM [18]: 14.5 MFI
- Kd (hPD-1-Fc [19]): 0.477 nM
- MFI, 5 nM [20]: 59.9 MFI
- IC50 (hPD-1-Fc [21]): ~2.14 nM
- Inhibition % at 50 nM (hPD-1-Fc [21]): 92.2%
- Inhibition, % at 5.56 nM (hPD-1-Fc [21]): 92%
- MFI, 5 nM [22]: 65.2 MFI
- Kd (hPD-1-his [23]): ≥ 0.9 nM
- MFI, 5 nM [24]: 227 MFI
- EC50 [25]: 0.15 nM
- MFI at 5 nM [25]: 110 MFI
- Kd (hPD-1-Fc [26]): < 0.136 nM
- Kd (hPD-1-his [27]): < 0.586 nM
- EC50 (hPD-1-Fc [28]): 0.079 nM
- EC50, Promega blockade bioassay [29]: 0.164 µg/mL
- Fold induction [29]: 5.66 fold
- EC50 [30]: 0.21 nM
- MFI at 5 nM [30]: 89.5 MFI

B2: R3A9 (antibody, V domains shown)
VH: QVQLVQSGAEVKKPGASVKVSCKASGHTFTSYYIHWVRQAPGQGLEWMGIINPSGGSTSYAQKFQGRVTMTRDTSTSTVYMELSSLRSEDTAVYYCARDRAYGGAGDYWGQGTLVTVSS
VL: DIQMTQSPSSLSASVGDRVTITCRASQSVGTWLAWYQQKPGKAPKLLIYSASTLQSGVPSRFSGSGSGTDFTLTISSLQPEDFATYYCQQSYSAPLTFGGGTKVEIK
notes: also called 7115A; mPD1 parental (R3A9)
- IC50 (mPD-1-Fc [31]): 0.441 nM
- IC 50, Promega assay [32]: 1.62 µg/mL
- Kd (mPD-1-his [33]): 15.7 nM
- koff (mPD-1-his [33]): 0.00641 s⁻¹
- kon (mPD-1-his [33]): 409000 M⁻¹ s⁻¹
- EC50 [34]: 3.25 nM
- EC50 [35]: 0.645 nM
- IC50 [36]: 0.722 nM
- EC50 [37]: 1.36 nM
- EC50 [38]: 0.314 nM
- Kd (mPD-1-Fc [39]): 12.1 nM
- koff (mPD-1-Fc [39]): 0.0014 s⁻¹
- kon (mPD-1-Fc [39]): 116000 M⁻¹ s⁻¹
- EC50 [40]: 0.462 nM
- EC50 [41]: 0.566 nM
- EC50 (mPD-1-his [42]): 1.61 nM
- EC50 (mPD-1-Fc [43]): 0.156 nM
- EC50 (mPD-1-Fc [44]): 14.6 nM

B3: m4D1 (antibody, V domains shown)
VH: B2 VH
VL: B2 VL with V29I, G30S, T31A, S50K, T53S, Q55E, A94P, L96A
notes: R3A9 derivative
- Kd (hPD-1-Fc [45]): 1.09 nM
- koff (hPD-1-Fc [45]): 6.36e-05 s⁻¹
- kon (hPD-1-Fc [45]): 58300 M⁻¹ s⁻¹
- IC50 [46]: 6.02 nM
- EC50 [47]: 0.221 nM
- Kd (mPD-1-his [33]): 2.87 nM
- koff (mPD-1-his [33]): 0.000201 s⁻¹
- kon (mPD-1-his [33]): 70000 M⁻¹ s⁻¹
- IC50, Promega blockade bioassay [48]: 0.572 nM
- IC50, Promega blockade bioassay [49]: 2.12 nM
- EC50 [35]: 0.441 nM
- IC50 [36]: 0.882 nM
- EC50 [37]: 2.03 nM
- EC50 [38]: 1.14 nM
- EC50 [50]: 1.48 nM
- EC50 [51]: 0.738 nM
- Kd (mPD-1-Fc [39]): 2.69 nM
- koff (mPD-1-Fc [39]): 0.000179 s⁻¹
- kon (mPD-1-Fc [39]): 66300 M⁻¹ s⁻¹
- EC50 [40]: 1.15 nM
